Molecular target: the molecule itself
Assay: crystal structure; PKM2 variant with Ser and FBP; hanging drop, 0.1 M Tris pH 7.5, 0.2 M NaCl, 14% PEG 3350, 4 °C; molecular replacement with PDB 4B2D

B1: His-tagged PKM2 R399E (enzyme)
chain: not shown
notes: Pyruvate kinase isoform M2 (PKM2), engineered mutant R399E; full-length cDNA in pET28a, site-directed mutagenesis; Crystallised with Ser and FBP (PDB 5X0I); also called His-PKM2 R399E; source: E. coli BL21 (DE3), purified (cobalt-chelated TALON resin)
binding result: binds

From PMC6420622, “Mutations in the PKM2 exon-10 region are associated with reduced allostery and increased nuclear translocation” (Communications Biology, 2019)
